Data as given in publication PMC1557813 (Nucleic Acids Research, 2006).

T1: GST–PAH1 (amino acids 34–108) (mouse (as mSin3b), UniProt Q62141 34-108)
T1 sequence (looked up): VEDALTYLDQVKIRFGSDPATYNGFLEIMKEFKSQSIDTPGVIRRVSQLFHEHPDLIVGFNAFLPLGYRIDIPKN


Molecular target: T1, GST–PAH1 (amino acids 34–108)
Test: pull-down

Binder | binding result
EGDWLFFVLLVGLL [protG-P1-1 (P1-1 fused to the GB1 domain of streptococcal protein G)] | binds
SAAMGSAEAEALVALLFLSEE [protG-P1-8 Phe9 to alanine] | binds
SAAMGSAEFEAAVALLFLSEE [protG-P1-8 Leu12 to alanine] | binds
SAAMGSAEFEALVALLFLSEE [protG-P1-8 (P1-8 fused to the GB1 domain of streptococcal protein G)] | binds
SAAMGSAEFEALAALLFLSEE [protG-P1-8 Val13 to alanine] | binds
